What was measured:
[1] = target: yeast nucleosome (histone octamer on 147-bp Widom 601 DNA) (Saccharomyces cerevisiae) (UniProt P04911)
[2] = target: Tof1-Csm3 (full-length, CBP-tagged) (Saccharomyces cerevisiae) (UniProt P53840)
[3] = target: yeast nucleosome (histone octamer on 147-bp Widom 601 DNA) (Saccharomyces cerevisiae) (UniProt P04911); remark: listed apart in the source
[4] = target: yeast nucleosome (histone octamer on 147-bp Widom 601 DNA) (Saccharomyces cerevisiae) (UniProt P04911); remark: listed apart in the source

yeast nucleosome (histone octamer on 147-bp Widom 601 DNA) (Saccharomyces cerevisiae), sequence (P04911 whole entry, chain 1 of 4, other chains not shown): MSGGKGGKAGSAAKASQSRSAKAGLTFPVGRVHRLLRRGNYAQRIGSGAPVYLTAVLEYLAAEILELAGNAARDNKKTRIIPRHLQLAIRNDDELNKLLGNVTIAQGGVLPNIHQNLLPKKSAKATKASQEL
yeast nucleosome (histone octamer on 147-bp Widom 601 DNA) (Saccharomyces cerevisiae), sequence (P02293 whole entry, chain 2 of 4, other chains not shown, further chain): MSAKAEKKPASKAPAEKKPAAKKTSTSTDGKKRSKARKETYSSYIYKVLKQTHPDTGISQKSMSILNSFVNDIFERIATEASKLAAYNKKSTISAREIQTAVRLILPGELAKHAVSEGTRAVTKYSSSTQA
Tof1-Csm3 (full-length, CBP-tagged) (Saccharomyces cerevisiae), sequence (P53840 whole entry, chain 1 of 2): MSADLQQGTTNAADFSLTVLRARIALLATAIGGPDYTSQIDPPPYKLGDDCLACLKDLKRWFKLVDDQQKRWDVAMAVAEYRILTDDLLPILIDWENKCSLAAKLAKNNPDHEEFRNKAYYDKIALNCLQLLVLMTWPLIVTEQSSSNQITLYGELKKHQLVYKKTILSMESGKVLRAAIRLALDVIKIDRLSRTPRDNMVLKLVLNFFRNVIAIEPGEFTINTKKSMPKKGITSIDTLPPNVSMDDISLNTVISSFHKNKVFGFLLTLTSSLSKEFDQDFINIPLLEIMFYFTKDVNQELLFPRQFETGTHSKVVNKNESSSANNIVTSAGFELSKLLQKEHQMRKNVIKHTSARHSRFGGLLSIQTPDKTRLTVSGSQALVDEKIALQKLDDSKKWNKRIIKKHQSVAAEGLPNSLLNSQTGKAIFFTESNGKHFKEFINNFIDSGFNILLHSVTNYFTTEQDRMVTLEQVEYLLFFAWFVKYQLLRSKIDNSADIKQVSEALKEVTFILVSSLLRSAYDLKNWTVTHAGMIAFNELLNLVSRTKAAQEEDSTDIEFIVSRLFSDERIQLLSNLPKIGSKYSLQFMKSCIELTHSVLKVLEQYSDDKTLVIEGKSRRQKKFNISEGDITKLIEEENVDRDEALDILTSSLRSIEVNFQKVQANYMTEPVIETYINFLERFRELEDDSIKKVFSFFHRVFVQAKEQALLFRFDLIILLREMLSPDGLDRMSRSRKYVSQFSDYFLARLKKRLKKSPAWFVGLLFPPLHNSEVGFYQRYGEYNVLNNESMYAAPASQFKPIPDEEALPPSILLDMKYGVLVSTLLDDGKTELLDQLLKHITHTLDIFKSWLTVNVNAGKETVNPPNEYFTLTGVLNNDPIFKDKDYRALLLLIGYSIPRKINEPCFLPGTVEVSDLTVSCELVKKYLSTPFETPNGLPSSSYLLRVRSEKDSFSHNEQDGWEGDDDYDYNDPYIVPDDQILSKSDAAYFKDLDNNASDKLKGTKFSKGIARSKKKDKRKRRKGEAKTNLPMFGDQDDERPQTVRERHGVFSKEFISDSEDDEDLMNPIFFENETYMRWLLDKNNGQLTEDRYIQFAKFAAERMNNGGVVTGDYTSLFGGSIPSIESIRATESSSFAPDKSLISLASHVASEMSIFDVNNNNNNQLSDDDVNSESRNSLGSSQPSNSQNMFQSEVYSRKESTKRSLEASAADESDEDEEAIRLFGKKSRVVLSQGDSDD
Tof1-Csm3 (full-length, CBP-tagged) (Saccharomyces cerevisiae), sequence (Q04659 whole entry, chain 2 of 2, further chain): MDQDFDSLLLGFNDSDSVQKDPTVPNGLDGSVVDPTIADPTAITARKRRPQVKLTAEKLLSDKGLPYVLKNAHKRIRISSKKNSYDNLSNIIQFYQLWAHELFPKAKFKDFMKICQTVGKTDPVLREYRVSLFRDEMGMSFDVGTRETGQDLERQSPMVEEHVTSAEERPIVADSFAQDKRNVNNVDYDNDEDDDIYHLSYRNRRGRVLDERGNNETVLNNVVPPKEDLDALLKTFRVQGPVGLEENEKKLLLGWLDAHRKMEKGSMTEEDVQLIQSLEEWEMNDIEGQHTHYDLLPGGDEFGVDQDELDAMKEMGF

Substance	nucleosome reorganization, loss of FRET (%), with Nhp6 [1] [%]	decrease in in vitro chromatin replication (leading-strand length), 50 nM SΔN-P against 50 nM fl FACT, 20 nM fl Tof1-Csm3; restored by 4- and 8-fold excess of SΔN-P [2] [%]	nucleosome reorganization, loss of FRET (%) of Cy3/Cy5-labelled nucleosomal DNA, FACT together with Nhp6 (yFACT); nucleosome alone 9.23 [3] [%]	nucleosome reorganization, loss of FRET (%) of Cy3/Cy5-labelled nucleosomal DNA, FACT without Nhp6; nucleosome alone 9.23 [3] [%]	reduction of the nucleosome reorganization activity of yFACT (single-molecule FRET) when Tof1-Csm3 is added [4] [%]
S-PΔC (FACT lacking the C-terminus of Pob3) (from UniProt P32558 1-1035; Q04636 1-552) (complex)	63				
SΔC-P (FACT lacking the C-terminus of Spt16) (from UniProt P32558 1-1035; Q04636 1-552) (complex)	46.8				
SΔN-P (FACT lacking the N-terminus of Spt16) (from UniProt P32558 1-1035; Q04636 1-552) (complex)	65	58			
full-length (fl) FACT (Spt16-Pob3) (from UniProt P32558 1-1035; Q04636 1-552) (complex)			72.1	10.5	53
